{
  "source": "paper PMC12282144",
  "about": "(Journal of Virology, 2025)",
  "key": {"[1]": {"biological_target": "T1, recombinant Fc-tagged NRP2 ectodomain (human, UniProt O60462 21-864)", "T1 construct": "not shown: Fc, C-terminal, kept", "T1 sequence": "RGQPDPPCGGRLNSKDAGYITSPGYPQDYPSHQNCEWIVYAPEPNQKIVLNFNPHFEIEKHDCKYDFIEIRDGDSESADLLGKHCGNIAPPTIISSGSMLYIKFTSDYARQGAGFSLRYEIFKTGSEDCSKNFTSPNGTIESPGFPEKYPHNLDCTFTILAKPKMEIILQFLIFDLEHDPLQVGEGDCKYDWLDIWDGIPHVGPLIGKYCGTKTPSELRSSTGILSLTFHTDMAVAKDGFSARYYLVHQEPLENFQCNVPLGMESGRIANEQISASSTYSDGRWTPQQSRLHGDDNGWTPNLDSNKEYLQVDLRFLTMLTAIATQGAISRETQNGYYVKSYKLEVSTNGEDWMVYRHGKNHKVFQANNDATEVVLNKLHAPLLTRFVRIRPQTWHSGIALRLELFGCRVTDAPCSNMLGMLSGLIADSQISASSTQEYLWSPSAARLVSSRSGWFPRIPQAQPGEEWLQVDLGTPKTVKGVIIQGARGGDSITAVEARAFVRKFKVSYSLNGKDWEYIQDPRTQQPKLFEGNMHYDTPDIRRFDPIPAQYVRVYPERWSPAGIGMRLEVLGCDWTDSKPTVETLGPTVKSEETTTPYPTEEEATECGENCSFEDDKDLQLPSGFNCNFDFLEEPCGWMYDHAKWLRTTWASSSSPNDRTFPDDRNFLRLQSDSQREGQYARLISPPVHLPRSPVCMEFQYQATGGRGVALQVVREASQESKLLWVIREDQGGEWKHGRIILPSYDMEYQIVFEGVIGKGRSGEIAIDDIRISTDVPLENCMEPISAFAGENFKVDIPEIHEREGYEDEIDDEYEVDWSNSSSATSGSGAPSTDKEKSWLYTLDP", "assay": "[…] (10, 20 or 50 µL, […]) in 0.2 mL PBS for 2 h; […]", "settings": "both partners purified"}, "[2]": {"biological_target": "T2, N-terminal GST-tagged soluble ectodomain of NRP2 (aa 17-865) (human, UniProt O60462 17-865)", "T2 construct": "not shown: GST, N-terminal, kept", "T2 sequence": "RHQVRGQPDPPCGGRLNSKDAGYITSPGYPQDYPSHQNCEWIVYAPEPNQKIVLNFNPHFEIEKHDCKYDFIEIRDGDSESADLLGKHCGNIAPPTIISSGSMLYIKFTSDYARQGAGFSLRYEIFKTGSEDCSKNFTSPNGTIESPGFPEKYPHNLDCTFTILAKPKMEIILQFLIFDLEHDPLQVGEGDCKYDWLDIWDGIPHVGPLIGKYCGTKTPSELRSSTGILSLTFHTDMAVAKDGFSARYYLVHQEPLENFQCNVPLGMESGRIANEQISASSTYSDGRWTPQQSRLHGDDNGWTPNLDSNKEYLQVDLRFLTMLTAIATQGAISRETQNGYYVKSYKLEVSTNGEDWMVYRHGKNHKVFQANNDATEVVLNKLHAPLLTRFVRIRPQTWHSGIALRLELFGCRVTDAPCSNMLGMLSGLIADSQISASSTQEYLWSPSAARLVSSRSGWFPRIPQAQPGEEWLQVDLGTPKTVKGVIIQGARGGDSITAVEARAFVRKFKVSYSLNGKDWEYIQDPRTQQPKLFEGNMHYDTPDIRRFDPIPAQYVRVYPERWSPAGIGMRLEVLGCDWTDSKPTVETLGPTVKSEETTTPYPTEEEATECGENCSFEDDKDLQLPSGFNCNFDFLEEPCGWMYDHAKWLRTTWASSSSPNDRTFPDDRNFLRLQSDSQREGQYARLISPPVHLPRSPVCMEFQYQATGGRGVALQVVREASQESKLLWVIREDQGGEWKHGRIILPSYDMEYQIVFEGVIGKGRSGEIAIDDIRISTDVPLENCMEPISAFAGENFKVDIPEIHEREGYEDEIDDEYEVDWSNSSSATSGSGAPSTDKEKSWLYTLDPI", "assay": "pull-down", "settings": "both partners purified"}},
  "data": [
    {"binder": "RABV G on purified ERA(G/Flag) particles (natural protein) KFPIYTILDKLGPWSPIDIHHLSCPNNLVVEDEGCTNLSGFSYMELKVGYILAIKMNGFTCTGVVTEAETYTNFVGYVTTTFKRKHFRPTPDACRAAYNWKMAGDPRYEESLHNPYPDYRWLRTVKTTKESLVIISPSVADLDPYDRSLHSRVFPSGKCSGVAVSSTYCSTNHDYTIWMPENPRLGMSCDIFTNSRGKRASKGSETCGFVDERGLYKSLKGACKLKLCGVLGLRLMDGTWVAMQTSNETKWCPPDQLVNLHDFRSDEIEHLVVEELVRKREECLDALESIMTTKSVSFRRLSHLRKLVPGFGKAYTIFNKTLMEADAHYKSVRTWNEILPSKGCLRVGGRCHPHVNGVFFNGIILGPDGNVLIPEMQSSLLQQHMELLESSVIPLVHPLADPSTVFKDGDEAEDFVEVHLPDVHNQVSGVDLGLPNWGKYVLLSAGALTALMLIIFLMTCCRRVNRSEPTQHNLRGTGREVSVTPQSGKIISSWESHKSGGETRL", "values": [
      {"measurement": "binding result", "setting": "[1]", "value": "binds"},
      {"measurement": "binding result", "setting": "[2]", "value": "binds"}
    ]}
  ]
}
